T1: N-terminally polyhistidine tagged human MARCO ECD (147-520), recombinant (human, UniProt Q9UEW3 147-520)
T1 construct: also called PI-RG-3000; recombinant human MARCO; not shown: N-terminal polyhistidine tag
T1 sequence: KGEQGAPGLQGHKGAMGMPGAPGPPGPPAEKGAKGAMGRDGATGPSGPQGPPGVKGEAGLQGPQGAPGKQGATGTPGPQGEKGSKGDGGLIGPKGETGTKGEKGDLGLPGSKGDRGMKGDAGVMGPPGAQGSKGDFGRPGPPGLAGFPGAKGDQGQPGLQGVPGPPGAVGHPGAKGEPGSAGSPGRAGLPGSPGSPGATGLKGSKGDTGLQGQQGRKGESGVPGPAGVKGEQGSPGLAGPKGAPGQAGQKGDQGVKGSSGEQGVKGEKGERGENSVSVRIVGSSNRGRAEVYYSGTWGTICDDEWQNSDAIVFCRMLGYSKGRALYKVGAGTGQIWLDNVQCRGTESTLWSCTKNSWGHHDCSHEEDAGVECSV

T2: Human Macrophage Receptor with Collagenous Structure (MARCO), full length, on cells (human, UniProt Q9UEW3 1-520)
T2 construct: the cell type is named under assay; also called huMARCO; HuMARCO
T2 sequence: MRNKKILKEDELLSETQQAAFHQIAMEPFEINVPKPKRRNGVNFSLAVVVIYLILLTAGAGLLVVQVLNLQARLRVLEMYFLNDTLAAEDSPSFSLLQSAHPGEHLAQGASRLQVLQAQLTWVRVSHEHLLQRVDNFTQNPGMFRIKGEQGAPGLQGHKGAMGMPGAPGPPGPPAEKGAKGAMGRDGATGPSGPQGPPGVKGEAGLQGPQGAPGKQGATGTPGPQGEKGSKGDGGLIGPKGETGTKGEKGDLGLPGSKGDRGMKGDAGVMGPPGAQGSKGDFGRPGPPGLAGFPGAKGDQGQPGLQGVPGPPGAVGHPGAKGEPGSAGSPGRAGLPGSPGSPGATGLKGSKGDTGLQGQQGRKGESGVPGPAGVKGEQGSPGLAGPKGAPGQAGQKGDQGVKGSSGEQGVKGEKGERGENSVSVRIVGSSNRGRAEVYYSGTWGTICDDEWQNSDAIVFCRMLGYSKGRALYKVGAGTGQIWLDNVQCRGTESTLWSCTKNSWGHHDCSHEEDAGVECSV


Assays:
[1] = biological target: T1, N-terminally polyhistidine tagged human …; assay: ELISA on recombinant human MARCO, 0 mM EDTA
Description: (§1) After the plates were incubated at room temperature for 1 hour or 4° C. overnight, the plates were wash 3 times with ELISA wash buffer (PBS/0.05% TWEEN-20), then hybridoma supernatant (1:5 dilution) or purified antibody (1 ug) was diluted in DPBS/Ca2+/2% FBS, DPBS without Ca2+/2 mM EDTA/2% FBS, DPBS without Ca2+/10 mM EDTA/2% FBS, and DPBS without Ca2+/50 mM EDTA/2% FBS. Plates again were incubated at room temperature for 1 hour.

[2] = biological target: T1, N-terminally polyhistidine tagged human …; assay: label-free kinetics (ProbeLife Gator), mAb captured, human MARCO
Description: The kinetics assay used either anti-mouse Fc or anti-human Fc probes to capture the anti-MARCO antibodies onto the probe, and then a five-step kinetic protocol was used to measure the affinity of the antibodies to the antigen, including the following steps: baseline, loading, baseline, association, and dissociation. The kinetics buffer (K buffer) provided by ProbeLife was used to establish the baseline for 60 seconds, and then the anti-mFc or anti-hFc probes were loaded with 200 nM of the antibodies for 120s until the capture reached saturation, measurement of the baseline in K buffer was performed for another 60s, followed by the association step using 200 nM antigen (human MARCO, mouse MARCO or cyno MARCO), and the dissociation step performed in K buffer for 5-10 minutes. The assay was done at 37° C. to maximize antibody:antigen dissociation.
Kinetics and epitope binning analysis of the newly generated anti-human MARCO antibodies was performed as described in Example 3.

[3] = biological target: T2, Human Macrophage Receptor with …; assay: flow cytometry, 293T (HuMARCO)
Description: Supernatants were removed and cell pellets were resuspended in Ca²⁺+ and Mg²⁺+ Dulbecco's phosphate-buffered saline (D-PBS) at 1×10⁶ cells/ml. 100,000 cells/well were plated onto U-bottom 96-well plates for staining and all centrifugation steps were performed at 1500 rpm at 4° C. for 5 min and samples were kept protected from light throughout the protocol. Cells were pelleted and resuspended in 100 μl of Zombie NIR viability dye (BioLegend) prepared by diluting Zombie NIR dimethyl sulfoxide (DMSO) stock 1000-fold in D-PBS. […] Flow cytometry data were analyzed using FlowJo software (version 10.6.1) and data were processed and further analyzed in Microsoft Excel and GraphPad Prism software (version 8). Half-maximal effective concentrations (EC₅₀) were calculated based on geometric mean fluorescence intensities (gMFI). In case when the plates were not able to be analyzed on the cytometer, cells were pelleted after the washes and fixed in 100 μl of 2% paraformaldehyde (PFA), prepared by diluting the 16% (w/v) stock (Thermo Fisher) in DPBS, for 15 min at RT. […]

[4] = biological target: T1, N-terminally polyhistidine tagged human …; assay: ELISA on recombinant human MARCO, 10 mM EDTA
Description: as §1

Row | ELISA signal (A450) [1] | koff [2] | kon [2] | EC50 [3] | ELISA signal (A450) [4] | Binder
1 | 1.37 | 0.000798 s⁻¹ | 443000 M⁻¹ s⁻¹ | 0.56 nM | 0.0589 | PI-HX-3031 (antibody, Parental rat hybridoma, rat IgG2a) heavy: QVQLKESGPGLVQPSQTLSLTCTVSGFSLTSYHVSWVRQPPGKGLEWMGAIWTGGSIAYNSLLKSRLSISRDTSKSQVFLKMNSLQTEDTATYYCARDLSDYYSSYTSFDYWGQGVMVTVSTAETTAPSVYPLAPGTALKSNSMVTLGCLVKGYFPEPVTVTWNSGALSSGVHTFPAVLQSGLYTLTSSVTVPSSTWSSQAVTCNVAHPASSTKVDKKIVPRECNPCGCTGSEVSSVFIFPPKTKDVLTITLTPKVTCVVVDISQNDPEVRFSWFIDDVEVHTAQTHAPEKQSNSTLRSVSELPIVHRDWLNGKTFKCKVNSGAFPAPIEKSISKPEGTPRGPQVYTMAPPKEEMTQSQVSITCMVKGFYPPDIYTEWKMNGQPQENYKNTPPTMDTDGSYFLYSKLNVKKETWQQGNTFTCSVLHEGLHNHHTEKSLSHSP light: DIQMTQSPASLSTSLGETVSIECLASEGISNDLAWYQQKSGKSPQLLIYAASRLQDGVPSRFSGSGSGTRYSLKISGMQPEDEADYFCQQSYKYPLTFGSGTKLEIKRADAAPTVSIFPPSTEQLATGGASVVCLMNNFYPRDISVKWKIDGTERRDGVLDSVTDQDSKDSTYSMSSTLSLTKADYESHNLYTCEVVHKTSSSPVVKSFNRNEC
2 | 1.2 | 0.000849 s⁻¹ | 233000 M⁻¹ s⁻¹ | – | 0.06 | PI-HX-3043 (antibody, rat IgG2a, Parental rat hybridoma, rat IgG2a) heavy: QVNLLQSRAALVKPGASVKLSCKASGYTFTDYYLHWVKQSHAKSLEWIGYINPNNAYTSYNEKFKSKATLTVDKSTNTAYMELSRLTSADSATYYCARDTTDYYNLHFAYWGQGTLVTVSSAETTAPSVYPLAPGTALKSNSMVTLGCLVKGYFPEPVTVTWNSGALSSGVHTFPAVLQSGLYTLTSSVTVPSSTWSSQAVTCNVAHPASSTKVDKKIVPRECNPCGCTGSEVSSVFIFPPKTKDVLTITLTPKVTCVVVDISQNDPEVRFSWFIDDVEVHTAQTHAPEKQSNSTLRSVSELPIVHRDWLNGKTFKCKVNSGAFPAPIEKSISKPEGTPRGPQVYTMAPPKEEMTQSQVSITCMVKGFYPPDIYTEWKMNGQPQENYKNTPPTMDTDGSYFLYSKLNVKKETWQQGNTFTCSVLHEGLHNHHTEKSLSHSP light: DIQMTQSPASLSASLGETVSIECLTSEGISNDLAWYQQKSGKSPQLLIYDASRLEDGVPSRFSGSGSGTRYSLKISGMQTEDEADYFCQQSYKYPLTFGSGTKLEIKRADAAPTVSIFPPSTEQLATGGASVVCLMNNFYPRDISVKWKIDGTERRDGVLDSVTDQDSKDSTYSMSSTLSLTKADYESHNLYTCEVVHKTSSSPVVKSFNRNEC
3 | – | – | – | 0.49 nM | – | PI-HX-3061 (antibody, rat IgG2a, Parental rat hybridoma, rat IgG2a; cross reactive with human and mouse MARCO) heavy: EVQLVESGGGLVQPGSSLKLSCVASKFTFSNYGMNWIRQAPKKGLEWIALIYYNSNNKYYADSVKGRFTISRDNSKNTLYLEMNSLRSEDTAMYYCAKSLTGGSDYFDSWGQGVMVTVSSAETTAPSVYPLAPGTALKSNSMVTLGCLVKGYFPEPVTVTWNSGALSSGVHTFPAVLQSGLYTLTSSVTVPSSTWPSQTVTCNVAHPASSTKVDKKIVPRNCGGDCKPCICTGSEVSSVFIFPPKPKDVLTITLTPKVTCVVVDISQDDPEVHFSWFVDDVEVHTAQTRPPEEQFNSTFRSVSELPILHQDWLNGRTFRCKVTSAAFPSPIEKTISKPEGRTQVPHVYTMSPTKEEMTQNEVSITCMVKGFYPPDIYVEWQMNGQPQENYKNTPPTMDTDGSYFLYSKLNVKKEKWQQGNTFTCSVLHEGLHNHHTEKSLSHSP light: DVQMTQSPSYLAASPGESVSISCKASKSIGTFLAWYQEKPEKTNKLLIYSGSTLQSGTPSRFSGSGSGTDFTLTIRNLEPEDFAVYYCQQHDEYPFTFGSGTKLEIKRADAAPTVSIFPPSTEQLATGGASVVCLMNNFYPRDISVKWKIDGTERRDGVLDSVTDQDSKDSTYSMSSTLSLTKADYESHNLYTCEVVHKTSSSPVVKSFNRNEC

— US20220153832A1 (PIONYR IMMUNOTHERAPEUTICS, published 2022)
